Results: patent US20100136580A1 (Genentech, published 2010)

T1: GST-Dvl2PDZ fusion protein (human, UniProt O14641 248-364)
T1 construct: range 248-364; Made with the pGEX E. coli expression system; also called GST-PDZ fusion protein; not shown: glutathione S-transferase (GST) encoded by plasmid pGEX
T1 sequence (looked up): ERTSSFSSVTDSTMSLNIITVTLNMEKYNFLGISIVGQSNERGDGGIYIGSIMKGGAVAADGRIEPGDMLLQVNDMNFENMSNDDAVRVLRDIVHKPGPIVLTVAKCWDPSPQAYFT

B1: SEQ ID NO 156 (peptide)
peptide: PEVWIDGPESG
B2: SEQ ID NO 154 (peptide)
peptide: LTEIWIDGWP
B3: SEQ ID NO 8 (peptide)
peptide: TSSWKWYGWL
B4: SEQ ID NO 32 (peptide)
peptide: TPLYNYFGGL
B5: SEQ ID NO 36 (peptide)
peptide: RISWTFLGYF
B6: SEQ ID NO 11 (peptide)
peptide: NRWRLLGWF
B7: SEQ ID NO 26 (peptide)
peptide: SHFKFFGWF
B8: SEQ ID NO 150 (peptide)
peptide: MMWIDGPLAS
B9: SEQ ID NO 6 (peptide)
peptide: NKRYTVLGWF
B10: SEQ ID NO 29 (peptide)
peptide: RIVSFFYGWL
B11: SEQ ID NO 43 (peptide)
peptide: DIVLTNYGWIGGG
B12: SEQ ID NO 27 (peptide)
peptide: NRIPCLGGW
B13: SEQ ID NO 162 (peptide)
peptide: GEMWVDGPCL
B14: SEQ ID NO 15 (peptide)
peptide: AVRWLFLGWF
B15: SEQ ID NO 37 (peptide)
peptide: RPFCTFLGWF
B16: SEQ ID NO 35 (peptide)
peptide: MTKWIWYGWL
B17: SEQ ID NO 145 (peptide)
peptide: NLERWSDIPM
B18: SEQ ID NO 16 (peptide)
peptide: RSGHRFLGWF
B19: SEQ ID NO 24 (peptide)
peptide: NWKWYGFF
B20: SEQ ID NO 45 (peptide)
peptide: QTIWKDYGIIGGG
B21: SEQ ID NO 40 (peptide)
peptide: ELRWHDYGWIGGG
B22: SEQ ID NO 5 (peptide)
peptide: SWWNKCYGWF
B23: SEQ ID NO 41 (peptide)
peptide: QAVYKNYGWIGGG
B24: SEQ ID NO 17 (peptide)
peptide: SWKLLGFF
B25: SEQ ID NO 23 (peptide)
peptide: TWRVLGWF
B26: SEQ ID NO 38 (peptide)
peptide: SWYFKFYGWL
B27: SEQ ID NO 28 (peptide)
peptide: SPRFTFLGWF
B28: SEQ ID NO 149 (peptide)
peptide: PEVWIDGPEI
B29: SEQ ID NO 20 (peptide)
peptide: LLFLKYYGWL
B30: SEQ ID NO 9 (peptide)
peptide: PRIFKDYGMF
B31: SEQ ID NO 42 (peptide)
peptide: EWSHVYYGWLGGG
B32: SEQ ID NO 10 (peptide)
peptide: YWTRTFYGFF
B33: SEQ ID NO 13 (peptide)
peptide: FWIYKYYGRF
B34: SEQ ID NO 151 (peptide)
peptide: GEMWVDGPCL
B35: SEQ ID NO 166 (peptide)
peptide: TIWWDYGAI
B36: SEQ ID NO 21 (peptide)
peptide: STRHYRTWWF
B37: SEQ ID NO 30 (peptide)
peptide: KFLGWF
B38: SEQ ID NO 161 (peptide)
peptide: TTEVWVDWPM
B39: SEQ ID NO 25 (peptide)
peptide: YTFFGWF
B40: SEQ ID NO 18 (peptide)
peptide: TSFLKGYGWL
B41: SEQ ID NO 164 (peptide)
peptide: AEVWVDGPYI
B42: SEQ ID NO 7 (peptide)
peptide: IVRWTLLGIF
B43: SEQ ID NO 31 (peptide)
peptide: YFFYGWF
B44: SEQ ID NO 44 (peptide)
peptide: TVVWHDYGWIGGG
B45: SEQ ID NO 147 (peptide)
peptide: TWIDGPYLLQ
B46: SEQ ID NO 160 (peptide)
peptide: AEQWIDGPHL
B47: SEQ ID NO 34 (peptide)
peptide: RTRFTCFGWF
B48: SEQ ID NO 14 (peptide)
peptide: DRIRFLGWF
B49: SEQ ID NO 19 (peptide)
peptide: SISYWFYGWL
B50: SEQ ID NO 158 (peptide)
peptide: VPTWIDGPCVD
B51: SEQ ID NO 153 (peptide)
peptide: ETWIDGPMYT
B52: SEQ ID NO 146 (peptide)
peptide: SLLTIWSDIP
B53: SEQ ID NO 157 (peptide)
peptide: NEVWIDGPGQ
B54: SEQ ID NO 159 (peptide)
peptide: NEVWIDGPGI
B55: SEQ ID NO 152 (peptide)
peptide: ERWIDYGYIL
B56: SEQ ID NO 144 (peptide)
peptide: EMDLLWTDIP
B57: SEQ ID NO 148 (peptide)
peptide: VWGDSFEGRP
B58: SEQ ID NO 165 (peptide)
peptide: QTIWKDYGII
B59: SEQ ID NO 39 (peptide)
peptide: ITRYTFFGFF
B60: SEQ ID NO 22 (peptide)
peptide: NVFRFFGWL
B61: SEQ ID NO 33 (peptide)
peptide: TVRWVFFGFF
B62: SEQ ID NO 12 (peptide)
peptide: TSWCKWYGWL

Molecular target: T1, GST-Dvl2PDZ fusion protein
Test: phage display selection on GST-Dvl2PDZ
Procedure: The libraries were cycled through rounds of binding selection with a GST-Dvl2PDZ fusion protein coated on 96-well Maxisorp immunoplates as the capture target. Phage were propagated in E. coli XL1-blue with M13-KO7 helper phage and 10 μM IPTG. After four rounds of binding selection, individual phage clones were analyzed in a high-throughput phage ELISA, and positive clones were subjected to DNA sequence analysis.
We used decapeptide libraries fused to the C-terminus or N-terminus of the phage coat protein. The library contained NNK degenerate codons that encoded all 20 natural amino acids. The possible occurrence of amber stop codons in the degenerate codon also provided for the display of shorter peptides for the C-terminal library. Each library was cycled through four rounds of binding selection with immobilized GST-Dvl2PDZ fusion protein as the capture target.

Binding result, binds:
B1
B2
B3
B4
B5
B6
B7
B8
B9
B10
B11
B12
B13
B14
B15
B16
B17
B18
B19
B20
B21
B22
B23
B24
B25
B26
B27
B28
B29
B30
B31
B32
B33
B34
B35
B36
B37
B38
B39
B40
B41
B42
B43
B44
B45
B46
B47
B48
B49
B50
B51
B52
B53
B54
B55
B56
B57
B58
B59
B60
B61
B62
